{"source": "patent US20070224205A1", "binders": {"B1": {"name": "STF2.HA1-1His(PR8), produced in Baculovirus (protein)", "chain": "AQVINTNSLSLLTQNNLNKSQSALGTAIERLSSGLRINSAKDDAAGQAIANRFTANIKGLTQASRNANDGISIAQTTEGALNEINNNLQRVRELAVQSANSTNSQSDLDSIQAEITQRLNEIDRVSGQTQFNGVKVLAQDNTLTIQVGANDGETIDIDLKQINSQTLGLDSLNVQKAYDVKDTAVTTKAYANNGTTLDVSGLDDAAIKAATGGTNGTASVTGGAVKFDADNNKYFVTIGGFTGADAAKNGDYEVNVATDGTVTLAAGATKTTMPAGATTKTEVQELKDTPAVVSADAKNALIAGGVDATDANGAELVKMSYTDKNGKTIEGGYALKAGDKYYAADYDEATGAIKAKTTSYTAADGTTKTAANQLGGVDGKTEVVTIDGKTYNASKAAGHDFKAQPELAEAAAKTTENPLQKIDAALAQVDALRSDLGAVQNRFNSAITNLGNTVNNLSEARSRIEDSDYATEVSNMSRAQILQQAGTSVLAQANQVPQNVLSLLASGSGSGSSHNGKLCRLKGIAPLQLGKCNIAGWLLGNPECDPLLPVRSWSYIVETPNSENGICYPGDFIDYEELREQLSSVSSFERFEIFPKESSWPNHNTNGVTAACSHEGKSSFYRNLLWLTEKEGSYPKLKNSYVNKKGKEVLVLWGIHHPPNSKEQQNLYQNENAYVSVVTSNYNRRFTPEIAERPKVRDQAGRMNYYWTLLKPGDTIIFEANGNLIAPMYAFALSRGFGSGIITSNASMHECNTKCQTPLGAINSSLPYQNIHPVTIGECPKYVRHHHHHH"}}, "molecular_target": "Toll-like Receptor 5 (UniProt O60602)", "assay": "cell-based or functional assay"}
{"binder": "B1", "values": [{"measurement": "TLR activity (EC50, ng/ml); IL-8 secretion by HEK293 cells", "value": 3, "unit": "ng/mL"}]}
